For the assay, the target named is dCas9-GCN4 fusion protein of System 3 (dCas9 with 5 copies of GCN4 peptides, linker of 22 amino acids) (S. pyogenes) (UniProt Q99ZW2). In words: cell-based or functional assay.

Here are results for one substance from patent US20180346932A1.

GCN4 peptide antibody (scFv)-superfolder green fluorescent protein (sfGFP)-TET1CD fusion protein, sequence (Q8NFU7 1418-2136): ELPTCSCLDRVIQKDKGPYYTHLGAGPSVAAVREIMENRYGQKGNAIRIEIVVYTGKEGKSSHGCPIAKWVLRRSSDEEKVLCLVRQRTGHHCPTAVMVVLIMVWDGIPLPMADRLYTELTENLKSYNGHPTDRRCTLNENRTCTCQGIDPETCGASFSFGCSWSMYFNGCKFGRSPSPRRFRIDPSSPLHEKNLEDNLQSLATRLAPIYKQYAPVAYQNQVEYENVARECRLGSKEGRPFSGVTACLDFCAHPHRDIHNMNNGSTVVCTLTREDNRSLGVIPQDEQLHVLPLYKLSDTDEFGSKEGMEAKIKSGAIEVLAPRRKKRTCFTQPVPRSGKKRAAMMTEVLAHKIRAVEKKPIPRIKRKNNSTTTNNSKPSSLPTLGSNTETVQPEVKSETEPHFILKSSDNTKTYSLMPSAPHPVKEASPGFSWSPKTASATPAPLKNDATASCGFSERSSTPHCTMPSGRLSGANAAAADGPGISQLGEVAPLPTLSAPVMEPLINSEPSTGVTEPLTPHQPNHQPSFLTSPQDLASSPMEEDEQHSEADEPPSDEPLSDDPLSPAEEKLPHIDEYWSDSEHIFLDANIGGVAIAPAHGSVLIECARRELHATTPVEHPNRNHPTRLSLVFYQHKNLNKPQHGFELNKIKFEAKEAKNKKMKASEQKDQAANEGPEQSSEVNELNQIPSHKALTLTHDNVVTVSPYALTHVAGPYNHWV

Turning to “GCN4 peptide antibody (scFv)-superfolder green fluorescent protein (sfGFP)-TET1CD fusion protein (from UniProt Q8NFU7 1418-2136)”, the demethylation of the Gfap STAT3 site in ESCs (COBRA, standardized demethylation percentage) turned out to be 43%.
